According to patent publication US20110311550A1 (Scripps Research, published 2011):

Experiments:
Assay in all cases: ELISA, lectin-captured E1E2 lysate, Ab 1 ug/ml;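 further: E1E2 captured on Galanthus nivalis lectin-coated plates, bound test antibody read out by an HRP-linked secondary antibody and TMB colour development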
[1] = target: E1E2 complex (H77) with E1 mutation P341A (HCV genotype 1a, isolate H77, UniProt P27958 192-383; P27958 384-746)
[2] = target: E1E2 complex (H77) with E1 mutation G311A (HCV genotype 1a, isolate H77, UniProt P27958 192-383; P27958 384-746)
[3] = target: E1E2 complex (H77) with E1 mutation D321A (HCV genotype 1a, isolate H77, UniProt P27958 192-383; P27958 384-746)
[4] = target: E1E2 complex (H77) with E1 mutation T255A (HCV genotype 1a, isolate H77, UniProt P27958 192-383; P27958 384-746)
[5] = target: E1E2 complex (H77) with E1 mutation L258A (HCV genotype 1a, isolate H77, UniProt P27958 192-383; P27958 384-746)
[6] = target: E1E2 complex (H77) with E1 mutation S236A (HCV genotype 1a, isolate H77, UniProt P27958 192-383; P27958 384-746)
[7] = target: E1E2 complex (H77) with E1 mutation Q193A (HCV genotype 1a, isolate H77, UniProt P27958 192-383; P27958 384-746)
[8] = target: E1E2 complex (H77) with E1 mutation D263A (HCV genotype 1a, isolate H77, UniProt P27958 192-383; P27958 384-746)
[9] = target: E1E2 complex (H77) with E1 mutation G282A (HCV genotype 1a, isolate H77, UniProt P27958 192-383; P27958 384-746)
[10] = target: E1E2 complex (H77) with E1 mutation W326A (HCV genotype 1a, isolate H77, UniProt P27958 192-383; P27958 384-746)
[11] = target: E1E2 complex (H77) with E1 mutation A274G (HCV genotype 1a, isolate H77, UniProt P27958 192-383; P27958 384-746)
[12] = target: E1E2 complex (H77) with E1 mutation D279A (HCV genotype 1a, isolate H77, UniProt P27958 192-383; P27958 384-746)
[13] = target: E1E2 complex (H77) with E1 mutation S211A (HCV genotype 1a, isolate H77, UniProt P27958 192-383; P27958 384-746)
[14] = target: E1E2 complex (H77) with E1 mutation N305A/N325A (HCV genotype 1a, isolate H77, UniProt P27958 192-383; P27958 384-746)
[15] = target: E1E2 complex (H77) with E1 mutation V194A (HCV genotype 1a, isolate H77, UniProt P27958 192-383; P27958 384-746)
[16] = target: E1E2 complex (H77) with E1 mutation N305A/N209A (HCV genotype 1a, isolate H77, UniProt P27958 192-383; P27958 384-746)
[17] = target: E1E2 complex (H77) with E1 mutation Y192A (HCV genotype 1a, isolate H77, UniProt P27958 193-383; P27958 384-746)
[18] = target: E1E2 complex (H77) with E1 mutation A319G (HCV genotype 1a, isolate H77, UniProt P27958 192-383; P27958 384-746)
[19] = target: E1E2 complex (H77) with E1 mutation W353A (HCV genotype 1a, isolate H77, UniProt P27958 192-383; P27958 384-746)
[20] = target: E1E2 complex (H77) with E1 mutation P244A (HCV genotype 1a, isolate H77, UniProt P27958 192-383; P27958 384-746)
[21] = target: E1E2 complex (H77) with E1 mutation F291A (HCV genotype 1a, isolate H77, UniProt P27958 192-383; P27958 384-746)
[22] = target: E1E2 complex (H77) with E1 mutation T314A (HCV genotype 1a, isolate H77, UniProt P27958 192-383; P27958 384-746)

B1: N4 IgG (antibody, V domains shown)
VH: VQLLEQSGPEVKKPGDSLRISCKMSGDSLVTTWIGWVRQKPGQGLEWMGIINPGDSSTNIYPGDSATRYGPSFQGQVTISIDKSTSTAYLQWNNVKASDTGIYYCARHVPVPISGTFLWREREMHDFGYFDDWGQGTLVIVSS
VL: ELTLTQSPGTLSLSPGERATLSCRASQSVSNNYLAWYQQKPGQAPRLLIYGASSRATGIPDRFSGSGSGTGFTLIISRLEPEDFAVYYCQQYGSSSITFGQGTRLEIKR
notes: also called IgG N4
Binding relative to wt (%) [1]: 105%
Binding relative to wt (%) [2]: 87%
Binding relative to wt (%) [3]: 92%
Binding relative to wt (%) [4]: 96%
Binding relative to wt (%) [5]: 89%
Binding relative to wt (%) [6]: 81%
Binding relative to wt (%) [7]: 117%
Binding relative to wt (%) [8]: 85%
Binding relative to wt (%) [9]: 128%
Binding relative to wt (%) [10]: 125%
Binding relative to wt (%) [11]: 71%
Binding relative to wt (%) [12]: 31%
Binding relative to wt (%) [13]: 93%
Binding relative to wt (%) [14]: 74%
Binding relative to wt (%) [15]: 109%
Binding relative to wt (%) [16]: 17%
Binding relative to wt (%) [17]: 122%
Binding relative to wt (%) [18]: 113%
Binding relative to wt (%) [19]: 70%
Binding relative to wt (%) [20]: 95%
Binding relative to wt (%) [21]: 131%
Binding relative to wt (%) [22]: 83%
